According to article PMC6745501, “Plant photoreceptors and their signaling components compete for COP1 binding via VP peptide motifs” (The EMBO Journal, 2019):

Biological target: UVR8^HY5C44 chimera (recombinant) (Arabidopsis)
Test: SEC; purified recombinant chimeric UVR8 proteins alone, in the absence of UV-B

stoichiometry N: 2
Substance: UVR8^HY5C44 chimera (recombinant)
